From US20200199236A1 (BIO THERA SOLUTIONS, published 2020)

T1: CD20 (UniProt P11836 1-297, limits assumed)
T1 construct: whole, on cells; Endogenous CD20 on Raji and Wil2-s cell lines; also called CD20 on Raji cells; CD20 on Wil2-s cells
T1 sequence (looked up): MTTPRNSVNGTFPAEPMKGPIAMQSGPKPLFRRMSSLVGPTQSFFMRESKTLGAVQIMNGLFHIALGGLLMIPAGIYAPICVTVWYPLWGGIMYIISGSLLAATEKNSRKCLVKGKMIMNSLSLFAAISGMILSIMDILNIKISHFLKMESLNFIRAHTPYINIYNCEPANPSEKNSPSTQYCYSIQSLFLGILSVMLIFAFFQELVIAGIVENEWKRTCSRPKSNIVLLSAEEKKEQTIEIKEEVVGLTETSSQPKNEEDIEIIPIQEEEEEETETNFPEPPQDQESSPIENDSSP


What was measured:
CD20 [1] = target: T1, CD20; experiment: flow cytometry on Wil2-s cells; Kd=[Ab]*{Fmax/(F-Fback)-1}
CD20 [2] = target: T1, CD20; experiment: flow cytometry, antibody titrated on Raji cells, FITC anti-human IgG1 Fab secondary
CD20 [3] = target: T1, CD20; experiment: flow cytometry, antibody titrated on Wil2-s cells, FITC anti-human IgG1 Fab secondary
CD20 [4] = target: T1, CD20; experiment: flow cytometry; Mean Kd over Raji and Wil2-s cells
CD20 [5] = target: T1, CD20; experiment: flow cytometry on Raji cells; Kd=[Ab]*{Fmax/(F-Fback)-1}
FcγRIIIa 158V = target: T2, FcγRIIIa 158V (UniProt P08637 17-208, biotin-labeled (site not stated)); experiment: biosensor with SA sensor, biotin-FcγRIIIa 158V loaded, antibody in solution (7 concentrations, 2x gradient from 500 nM)
T2 construct: also called biotin-labeled FcγRIIIa 158V
Procedure: The sensor was pre-wetted in PBS for 10 min. […] AB solution, […], regeneration buffer, drug diluent and neutralization buffer were sequentially added to the corresponding columns of a 96-well plate. The SA sensor operates as follows: Baseline: detected the baseline in AB, 150 s; Association: combined in the gradient concentration of drug diluent sample and blank (AB) for 90 s; Dissociation: dissociated in AB for 120 s; Regeneration: regenerated in NaOH (pH 10.5) for 5 s; Neutralization: neutralized in AB for 5 s. The regeneration and neutralization cycles were carried out for 3 times. The collected data were analyzed by the instrument data analysis software Acquisition 8.2. Taking Baseline acquisition signal as a baseline and subtracting the reference signal (double deduction of sample blank and sensor blank), the data were subject to group analysis and fitted.

T2 sequence (P08637 17-208 F176V): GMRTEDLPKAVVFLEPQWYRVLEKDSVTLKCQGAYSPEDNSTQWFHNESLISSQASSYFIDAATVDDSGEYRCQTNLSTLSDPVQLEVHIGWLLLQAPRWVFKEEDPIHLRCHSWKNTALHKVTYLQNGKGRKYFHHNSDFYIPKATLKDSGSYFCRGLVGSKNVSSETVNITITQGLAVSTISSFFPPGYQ

Row | Binder | Kd (CD20 [1]) [nM] | IC50 (CD20 [2]) [nM] | IC50 (CD20 [3]) [nM] | Kd (CD20 [4]) [nM] | Kd (CD20 [5]) [nM] | Kd (FcγRIIIa 158V) [nM]
1 | Rituximab (antibody, V domains shown) VH: QVQLQQPGAELVKPGASVKMSCKASGYTFTSYNMHWVKQTPGRGLEWIGAIYPGNGDTSYNQKFKGKATLTADKSSSTAYMQLSSLTSEDSAVYYCARSTYYGGDWYFNVWGAGTTVTVSA VL: QIVLSQSPAILSASPGEKVTMTCRASSSVSYIHWFQQKPGSSPKPWIYATSNLASGVPVRFSGSGSGTSYSLTISRVEAEDAATYYCQQWTSNPPTFGGGTKLEIK | 16 | 13.3 | 16.8 | 14.3 | 12.7 | 
2 | BAT4306F (antibody, human IgG1, N-linked oligosaccharide without fucose (produced in FUT8 knockout CHO-2G8 / CHO-BAT-KF cells), Humanized anti-CD20 IgG with B-HH6 heavy and B-KV1 light variable regions from B-Ly1 (WO2005044859); Non-fucosylated glycoform; also called carbohydrate chain modified BAT4306F) light: DIVMTQTPLSLPVTPGEPASISCRSSKSLLHSNGITYLYWYLQKPGQSPQLLIYQMSNLVSGVPDRFSGSGSGTDFTLKISRVEAEDVGVYYCAQNLELPYTFGGGTKVEIKR heavy: not shown |  |  |  |  |  | 25.7
